Laboratory results reported in patent publication US20220265769A1, “COMPOSITIONS AND METHODS OF TREATMENT FOR BREAST CANCER INVOLVING A NOVEL CAPER?-MLL1 COMPLEX” (Geisinger Health, priority 2019, published 2022).

Assays:
PME cells = assay: Crystal violet assay / cell counts of primary mammary epithelial cells (PMEs) treated with cell penetrating peptides; type: cell-based, human; conditions: PME cells, 5 μM peptide in media, 72 hrs
Method: (§1) Crystal violet assay/optical density method of cell quantitation: 5×10^5 cells were plated per well in 6-well tissue culture plates. At times indicated cells were washed with PBS and fixed for 10 minutes in a 10% formalin solution. Cells were then rinsed with distilled water and subsequently stained with 100 μl 0.1% crystal violet solution for 30 min. Stained cells were rinsed with water to remove the excess traces of the staining solution. Cell-associated crystal violet dye was extracted with 500 μl of 10% acetic acid. Aliquots were collected and optical density was measured at 590 nm wavelength. Each point on the curve shown represents 3 independent wells.
(§2) Cell counts for CPP treatments: Cells were plated in 6-well dishes and incubated with 5 μM concentration of peptides. At days noted, cells were trypsinized and counted using a hemocytometer.
Whether recombinant RRM3 conjugated with the Penetratin cell penetrating peptide (Dupont E, et al., Methods Mol Biol. 1324:29-37 (2015)) (FIGS. 9A, B) affects growth of T47D and PME cells was tested. Equal numbers of PME and T47D cells were seeded and incubated with 5 μM peptide in media for 72 hrs. […] Compared to CPP-coupled RRM3, CPP-RRM1 and RRM3 had no effect (FIGS. 9H-N). […]

T47D cells = assay: Crystal violet assay / cell counts of T47D cells treated with cell penetrating peptides; type: cell-based, human; conditions: 5 μM peptide in media, 72 hrs
Method: FIG. 9. […] A) Amino acid sequences of CPP-RRM1-myc, and RRM3-(441-500)-myc (SEQ ID NO: 33) and CPP-RRM3 (441-500)-myc (SEQ ID NO: 32) peptides. The sequence of Penetratin is in grey, myc tag in light grey and RRM3 in black. B) Coomassie staining showing GST-tagged, purified proteins. C, D) Representative light microscopic images of crystal violet stained cells taken after 3 days of treatment with 5 uM CPP-RRM3 (441-500)-myc. E, F) Crystal violet assay of cell numbers during treatment with 5 uM CPP-RRM3 (441-500) myc. G) Quantification of total number of cells before and after 3 days of treatment with CPP RRM3. H, I, J) Representative light microscopic images of crystal violet stained T47D cells taken after 3 days of treatment with peptides listed at top. K, L, M) Crystal violet assay of number T47D cells over 3 days of treatment with peptides listed. N) Quantification of total number of T47D cells before and after 3 days of treatment.
as §1, §2
Whether recombinant RRM3 conjugated with the Penetratin cell penetrating peptide (Dupont E, et al., Methods Mol Biol. 1324:29-37 (2015)) (FIGS. 9A, B) affects growth of T47D and PME cells was tested. Equal numbers of PME and T47D cells were seeded and incubated with 5 μM peptide in media for 72 hrs. […]

B1: CPP-RRM3: recombinant RRM3 (441-500) conjugated with the Penetratin cell penetrating peptide, myc tag (SEQ ID NO: 32) (protein)
chain: RQIKIWFQNRRMKWKKGWDTEIKDDVIEECNKHGGVIHIYVDKNSAQGNVYVKCPSIAAAIAAVNALHGRWFAGKMTAAYVPEQKLISEEDL
modifications: RRM3-derived synthetic sequence
B1 was tested. Which “number of PMEs” value (PME cells) did it give?
The value was “no effect”.

And the “number of breast cancer cells” value (T47D cells)?
Its value is “dramatically decreased”.

What about the “number of breast cancer cells” value (T47D cells; listed as Cell-penetrating CAPERα RRM3) of the same molecule?
The value was “disrupts breast cancer cell growth”.

B2: RRM3: recombinant RRM3 (441-500)-myc peptide without Penetratin (SEQ ID NO: 33) (protein)
chain: GWDTEIKDDVIEECNKHGGVIHIYVDKNSAQGNVYVKCPSIAAAIAAVNALHGRWFAGKMTAAYVPEQKLISEEDL
modifications: RRM3-derived synthetic sequence
For B2, which “number of breast cancer cells” value (T47D cells) is on record?
Its value is “no effect”.
